# From US20250171542A1
# Biological target: human PD-L1 expressed on cell surface (human) (UniProt Q9NZQ7)
# Assay: cell-based or functional assay
# human PD-L1 expressed on cell surface (human), sequence (Q9NZQ7 19-290 limits assumed): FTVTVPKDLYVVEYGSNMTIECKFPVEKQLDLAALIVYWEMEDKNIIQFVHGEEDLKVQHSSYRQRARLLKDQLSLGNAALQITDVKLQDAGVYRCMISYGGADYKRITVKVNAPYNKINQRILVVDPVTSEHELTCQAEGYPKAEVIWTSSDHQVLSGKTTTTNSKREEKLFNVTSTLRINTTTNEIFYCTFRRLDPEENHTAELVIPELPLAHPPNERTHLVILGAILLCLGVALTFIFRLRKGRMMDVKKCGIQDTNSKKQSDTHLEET
row,Substance,"IC50 (nM), Promega PD-1/PD-L1 blockade reporter assay, another assay [nM]"
1,Atezolizumab analogue (BioIntron) (antibody),0.33
2,SGN-PD-L1 analogue anti-PD-L1 antibody (BioIntron),0.68
